Results as given in article PMC2855162 (Molecular cell, 2010).

B3: His-TRAF2 (domain or fragment, human)
chain: SELLQRCESLEKKTATFENIVCVLNREVERVAMTAEACSRQHRLDQDKIEALSSKVQQLERSIGL

Legend:
His-Smt3-TRAF1 (human) = target: T1, His-Smt3-TRAF1 (human); test: SEC-MALS
T1 sequence (Q13077 whole entry, looked up): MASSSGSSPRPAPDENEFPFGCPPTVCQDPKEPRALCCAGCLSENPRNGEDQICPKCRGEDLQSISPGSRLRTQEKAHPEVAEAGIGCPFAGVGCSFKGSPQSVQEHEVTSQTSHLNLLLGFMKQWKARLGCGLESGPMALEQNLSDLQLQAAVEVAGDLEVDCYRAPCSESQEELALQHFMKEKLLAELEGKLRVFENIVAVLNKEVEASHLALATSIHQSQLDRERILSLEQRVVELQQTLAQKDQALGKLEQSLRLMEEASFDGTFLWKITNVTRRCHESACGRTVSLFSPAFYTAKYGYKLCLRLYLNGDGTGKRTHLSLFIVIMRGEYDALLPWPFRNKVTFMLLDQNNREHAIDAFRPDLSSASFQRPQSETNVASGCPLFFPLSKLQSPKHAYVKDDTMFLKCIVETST

[1] = target: T2, TRAF2 construct containing residues 266-329 (human, UniProt Q12933 266-329); test: SEC-MALS
T2 sequence (looked up): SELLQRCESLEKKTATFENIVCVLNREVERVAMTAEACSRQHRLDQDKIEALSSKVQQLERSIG

His-TRAF2 = target: B3; test: pull-down
SEC-MALS = target: the molecule itself; test: SEC-MALS

His-Smt3-TRAF1 (domain or fragment)
stoichiometry N (His-Smt3-TRAF1 (human)): 3

B1: cIAP2 BIR1 domain (residues 26-99), non-tagged (domain or fragment, human, UniProt Q13489 26-99, looked up)
chain: LSCELYRMSTYSTFPAGVPVSERSLARAGFYYTGVNDKVKCFCCGLMLDNWKRGDSPTEKHKKLYPSCRFVQSL
stoichiometry N [1]: 3 TRAF2 molecules per cIAP2 BIR1 molecule

B2: untagged TRAF1 (co-expressed with His-tagged TRAF2 and cIAP2) (domain or fragment, human)
chain: FMKEKLLAELEGKLRVFENIVAVLNKEVEASHLALATSIHQSQLDRERILSLEQRVVELQQTLA
stoichiometry N (His-TRAF2): ~2 TRAF2 per TRAF1

B3
stoichiometry N (TRAF2 per TRAF1) (His-Smt3-TRAF1 (human)): 2 | stoichiometry N (SEC-MALS): 3
